Consider two molecules from US20220265856A1 (MODERNATX, published 2022).

Data set [1] deals with T1, human propionyl-CoA carboxylase beta (PCCB), wild-type isoform 1.
T1 chain: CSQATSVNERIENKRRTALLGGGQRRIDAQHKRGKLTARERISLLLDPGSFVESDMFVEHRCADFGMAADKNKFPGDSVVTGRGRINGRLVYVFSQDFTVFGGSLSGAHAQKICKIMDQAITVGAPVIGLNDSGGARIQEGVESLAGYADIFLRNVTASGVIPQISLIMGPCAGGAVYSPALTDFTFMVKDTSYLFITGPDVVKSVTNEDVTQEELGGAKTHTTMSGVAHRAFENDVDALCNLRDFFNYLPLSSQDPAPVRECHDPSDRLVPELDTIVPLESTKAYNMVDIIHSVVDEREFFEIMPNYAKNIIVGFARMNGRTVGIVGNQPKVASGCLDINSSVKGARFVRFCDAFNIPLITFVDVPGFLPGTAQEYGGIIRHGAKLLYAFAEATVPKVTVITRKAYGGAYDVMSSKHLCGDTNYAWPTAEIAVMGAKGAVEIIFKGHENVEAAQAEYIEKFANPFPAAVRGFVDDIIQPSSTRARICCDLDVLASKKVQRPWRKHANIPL

In data set [2] the target is T2, human propionyl-CoA carboxylase alpha (PCCA), wild-type isoform 1 (human, UniProt P05165 53-728).
T2 construct: Made inside transfected cells or mouse liver from mRNA encoding the full-length precursor; also called hPCCA; propionyl-CoA carboxylase alpha subunit
T2 sequence: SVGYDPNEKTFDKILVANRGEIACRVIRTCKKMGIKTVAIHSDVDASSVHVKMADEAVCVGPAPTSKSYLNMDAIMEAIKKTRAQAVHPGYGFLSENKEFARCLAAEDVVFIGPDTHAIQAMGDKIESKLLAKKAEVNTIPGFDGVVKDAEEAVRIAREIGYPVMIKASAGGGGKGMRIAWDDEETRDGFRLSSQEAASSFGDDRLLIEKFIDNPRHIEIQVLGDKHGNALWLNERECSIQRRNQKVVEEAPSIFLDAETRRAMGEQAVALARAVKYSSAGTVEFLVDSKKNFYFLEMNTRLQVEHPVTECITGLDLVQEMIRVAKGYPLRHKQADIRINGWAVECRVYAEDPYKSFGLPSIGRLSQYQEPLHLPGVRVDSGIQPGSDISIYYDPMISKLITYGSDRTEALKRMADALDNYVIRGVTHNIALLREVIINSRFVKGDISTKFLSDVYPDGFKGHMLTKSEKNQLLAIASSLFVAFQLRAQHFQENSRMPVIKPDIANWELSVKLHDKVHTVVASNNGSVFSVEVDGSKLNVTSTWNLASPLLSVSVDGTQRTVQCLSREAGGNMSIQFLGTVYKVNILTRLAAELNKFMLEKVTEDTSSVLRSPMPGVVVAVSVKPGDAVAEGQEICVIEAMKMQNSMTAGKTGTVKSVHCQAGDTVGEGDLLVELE
Briefly: immunofluorescence co-localisation with mitochondria in GM371 PCCA-deficient patient fibroblasts, 24 h after co-transfection of PCCA_18 and PCCB_18 mRNAs. On the procedure:
The subcellular co-localization of PCCA and PCCB proteins was examined in GM371 PCCA-deficient patient fibroblasts (9,000 cells/well on a 96-well plate) 24 hours after transfection with a total of 25 ng of 1-methyl-pseudouridine modified mRNAs encoding human PCCA (PCCA_18; SEQ ID NO: 35) and PCCB (PCCB_18; SEQ ID NO: 46), or a luciferase control. Commercial anti-PCCA monoclonal antibody (Santa Cruz #sc-393527) and anti-PCCB polyclonal antibody (Novus #NBP1-85886) were used to detect mRNA-expressed PCCA and PCCB using immunofluorescence microscopy. Mitotracker Red was used to confirm the identity of mitochondria and DAPI was used to stain nuclei. Image analysis was performed on a Zeiss ELYRA imaging system. […] There was no PAAC or PCCB staining in negative control cells that were transfected with mRNA encoding luciferase.

B1: human propionyl-CoA carboxylase alpha (PCCA), wild-type isoform 1 (protein)
chain: T2 sequence
As to B1, in data set [1], the “PCC activity in GM371 PCCA-deficient patient fibroblasts at different PCCA:PCCB mRNA molar ratios, 24 h and 40 h” value is on record as “a PCCA:PCCB molar ratio of 1:1 (A:B ratio of 1:1) increased PCC activity the greatest in PCCA-deficient patient fibroblasts”; the “PCC activity in GM1298 PCCB-deficient patient fibroblasts at different PCCA:PCCB mRNA molar ratios, 24 h” value was “a PCCA:PCCB molar ratio of 1:1 (A:B ratio of 1:1) increased PCC activity the greatest in PCCB-deficient patient fibroblasts”; the “PCC enzyme activity (radiometric assay, MicroBeta readout/ug protein) in PCCA- and PCCB-deficient patient fibroblasts: co-transfection of PCCA and PCCB mRNAs at 1:1 against either mRNA alone” value is 5-25 fold higher.

B2: human propionyl-CoA carboxylase beta (PCCB), wild-type isoform 1 (enzyme)
chain: T1 chain
notes: Made inside transfected cells or mouse liver from mRNA encoding the full-length precursor; also called hPCCB; propionyl-CoA carboxylase beta subunit
With B2, the binding result in data set [2] is “binds”.
